Where two headings read alike, the source gives them in different places. Numbered stars: 1 amine (or outer) side, 2 acyl side, 3 side chain; on linkers, the order of the positions; unused ones are H or OH. Square brackets hold non-standard residues; d marks the D form. Side chains are listed from the residue outwards. Peptide text beside a SMILES is read from it. * marks the point of attachment. γGlu = O=C(O)[C@H](CCC(=O)[*:2])N[*:1]; Stearoyl = CCCCCCCCCCCCCCCCCC(=O)*; Palmitoyl = CCCCCCCCCCCCCCCC(=O)*; AEEA = NCCOCCOCC(=O)O; Aib = CC(C)(N)C(=O)O
B1: Compound 3 (peptide)
peptide: YAQGTFTSDYSKYLDSKAAHDFVEWLLRA
HELM: PEPTIDE1{Y.[Aib].Q.G.T.F.T.S.D.Y.S.K.Y.L.D.S.K.A.A.H.D.F.V.E.W.L.L.R.A.[am]}$$$$V2.0
SMILES: CC(C)C[C@H](NC(=O)[C@H](CC(C)C)NC(=O)[C@H](Cc1c[nH]c2ccccc12)NC(=O)[C@H](CCC(=O)O)NC(=O)[C@@H](NC(=O)[C@H](Cc1ccccc1)NC(=O)[C@H](CC(=O)O)NC(=O)[C@H](Cc1c[nH]cn1)NC(=O)[C@H](C)NC(=O)[C@H](C)NC(=O)[C@H](CCCCN)NC(=O)[C@H](CO)NC(=O)[C@H](CC(=O)O)NC(=O)[C@H](CC(C)C)NC(=O)[C@H](Cc1ccc(O)cc1)NC(=O)[C@H](CCCCN)NC(=O)[C@H](CO)NC(=O)[C@H](Cc1ccc(O)cc1)NC(=O)[C@H](CC(=O)O)NC(=O)[C@H](CO)NC(=O)[C@@H](NC(=O)[C@H](Cc1ccccc1)NC(=O)[C@@H](NC(=O)CNC(=O)[C@H](CCC(N)=O)NC(=O)C(C)(C)NC(=O)[C@@H](N)Cc1ccc(O)cc1)[C@@H](C)O)[C@@H](C)O)C(C)C)C(=O)N[C@@H](CCCNC(=N)N)C(=O)N[C@@H](C)C(N)=O
B2: Compound 5 (peptide)
peptide: YAQGTFTSDYSIYLDSKAAHDFVEWLLSA
HELM: PEPTIDE1{Y.[Aib].Q.G.T.F.T.S.D.Y.S.I.Y.L.D.S.K.A.A.H.D.F.V.E.W.L.L.S.A.[am]}$$$$V2.0
SMILES: CC[C@H](C)[C@H](NC(=O)[C@H](CO)NC(=O)[C@H](Cc1ccc(O)cc1)NC(=O)[C@H](CC(=O)O)NC(=O)[C@H](CO)NC(=O)[C@@H](NC(=O)[C@H](Cc1ccccc1)NC(=O)[C@@H](NC(=O)CNC(=O)[C@H](CCC(N)=O)NC(=O)C(C)(C)NC(=O)[C@@H](N)Cc1ccc(O)cc1)[C@@H](C)O)[C@@H](C)O)C(=O)N[C@@H](Cc1ccc(O)cc1)C(=O)N[C@@H](CC(C)C)C(=O)N[C@@H](CC(=O)O)C(=O)N[C@@H](CO)C(=O)N[C@@H](CCCCN)C(=O)N[C@@H](C)C(=O)N[C@@H](C)C(=O)N[C@@H](Cc1c[nH]cn1)C(=O)N[C@@H](CC(=O)O)C(=O)N[C@@H](Cc1ccccc1)C(=O)N[C@H](C(=O)N[C@@H](CCC(=O)O)C(=O)N[C@@H](Cc1c[nH]c2ccccc12)C(=O)N[C@@H](CC(C)C)C(=O)N[C@@H](CC(C)C)C(=O)N[C@@H](CO)C(=O)N[C@@H](C)C(N)=O)C(C)C

Experiments:
human GLP-1 R = target: T1, human GLP-1 R (Homo sapiens, UniProt P43220); assay: cAMP induction in HEK293 cells expressing human GLP-1 R (AlphaScreen cAMP kit); format: cell-based; conditions: average EC50, cAMP, HEK293 cells expressing human GLP-1 R, read-out: GLP1 R (EC50 in nM)
T1 construct: expressed in transfected cells
T1 sequence (P43220 24-463): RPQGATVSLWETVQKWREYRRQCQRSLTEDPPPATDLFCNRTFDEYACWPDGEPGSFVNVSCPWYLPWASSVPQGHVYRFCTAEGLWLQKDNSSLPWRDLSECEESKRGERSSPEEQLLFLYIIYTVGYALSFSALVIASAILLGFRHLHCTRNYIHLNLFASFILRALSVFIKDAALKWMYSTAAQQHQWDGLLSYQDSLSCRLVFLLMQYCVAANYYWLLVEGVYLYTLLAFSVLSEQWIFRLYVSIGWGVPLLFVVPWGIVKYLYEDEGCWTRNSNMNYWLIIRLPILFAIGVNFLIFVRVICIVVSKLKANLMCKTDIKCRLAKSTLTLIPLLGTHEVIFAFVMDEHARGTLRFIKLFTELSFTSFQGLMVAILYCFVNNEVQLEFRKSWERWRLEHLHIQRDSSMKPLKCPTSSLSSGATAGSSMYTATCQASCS

human GCG R = target: T2, human GCG R (Homo sapiens, UniProt P47871); assay: cAMP induction in HEK293 cells expressing human GCG R (AlphaScreen cAMP kit); format: cell-based
T2 construct: expressed in transfected cells
T2 sequence (P47871 26-477): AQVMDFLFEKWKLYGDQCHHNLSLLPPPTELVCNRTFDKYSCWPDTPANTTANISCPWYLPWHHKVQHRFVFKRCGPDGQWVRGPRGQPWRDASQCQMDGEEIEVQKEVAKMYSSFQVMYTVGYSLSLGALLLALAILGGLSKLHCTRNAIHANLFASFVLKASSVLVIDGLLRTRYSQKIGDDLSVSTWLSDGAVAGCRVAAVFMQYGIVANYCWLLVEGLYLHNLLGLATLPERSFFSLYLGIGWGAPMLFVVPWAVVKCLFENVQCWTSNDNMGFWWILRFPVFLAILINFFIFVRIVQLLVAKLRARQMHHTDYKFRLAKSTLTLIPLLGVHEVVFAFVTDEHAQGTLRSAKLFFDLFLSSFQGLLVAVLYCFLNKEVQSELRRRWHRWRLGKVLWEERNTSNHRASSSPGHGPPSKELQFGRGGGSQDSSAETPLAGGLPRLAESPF

human GIP R = target: T3, human GIP R (Homo sapiens, UniProt P48546); assay: cAMP induction in HEK293 cells expressing human GIP R (AlphaScreen cAMP kit); format: cell-based
T3 construct: expressed in transfected cells
T3 sequence (P48546 22-466): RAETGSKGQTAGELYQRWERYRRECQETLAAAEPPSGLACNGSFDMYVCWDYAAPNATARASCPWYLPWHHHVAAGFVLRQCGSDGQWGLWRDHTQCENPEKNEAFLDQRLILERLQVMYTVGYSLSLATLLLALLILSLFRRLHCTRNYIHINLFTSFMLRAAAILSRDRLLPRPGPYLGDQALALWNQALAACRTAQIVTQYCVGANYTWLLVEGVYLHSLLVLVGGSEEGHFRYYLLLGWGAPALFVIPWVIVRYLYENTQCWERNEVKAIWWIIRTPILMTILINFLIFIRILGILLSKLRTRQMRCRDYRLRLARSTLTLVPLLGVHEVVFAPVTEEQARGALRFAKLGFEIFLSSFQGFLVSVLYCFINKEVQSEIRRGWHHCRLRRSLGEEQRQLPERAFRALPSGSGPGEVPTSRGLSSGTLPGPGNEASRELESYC

human glucagon receptor [1] = target: T4, human glucagon receptor (human, UniProt P47871 26-477); assay: cell-based or functional assay
T4 sequence (P47871 26-477): as the sequence (P47871 26-477) above

[2] = target: T5, human glucagon-like peptide 1 receptor (human, UniProt P43220 24-463); assay: cell-based or functional assay
human GIP receptor [3] = target: T6, human GIP receptor (human, UniProt P48546 22-466); assay: cell-based or functional assay
T6 sequence: T3 sequence (P48546 22-466)

human glucagon receptor [4] = target: T4, human glucagon receptor; assay: cell-based or functional assay; remark: listed apart in the source
[5] = target: T5, human glucagon-like peptide 1 receptor; assay: cell-based or functional assay; remark: listed apart in the source
human GIP receptor [6] = target: T6, human GIP receptor; assay: cell-based or functional assay; remark: listed apart in the source
[7] = Table 2b (most comprehensive data)
[8] = GIP R (EC50 in nM), Table 2b (most comprehensive data), average EC50, cAMP

Molecule	EC50 (cAMP induction) (human glucagon receptor [1])	EC50 (cAMP induction) [2]	EC50 (cAMP induction) (human GIP receptor [3])	EC50 (cAMP induction) (human glucagon receptor [4])	EC50 (cAMP induction) [5]	EC50 (cAMP induction) (human GIP receptor [6])	further results
CCCCCCCCCCCCCCCC(=O)N[C@@H](CCC(=O)NCCCC[C@H](NC(=O)[C@H](CO)NC(=O)[C@H](CC(=O)O)NC(=O)[C@H](CC(C)C)NC(=O)[C@H](Cc1ccc(O)cc1)NC(=O)[C@@H](NC(=O)[C@H](CO)NC(=O)[C@H](Cc1ccc(O)cc1)NC(=O)[C@H](CC(=O)O)NC(=O)[C@H](CO)NC(=O)[C@@H](NC(=O)[C@H](Cc1ccccc1)NC(=O)[C@@H](NC(=O)CNC(=O)[C@H](CCC(N)=O)NC(=O)C(C)(C)NC(=O)[C@@H](N)Cc1ccc(O)cc1)[C@@H](C)O)[C@@H](C)O)[C@@H](C)CC)C(=O)N[C@@H](C)C(=O)N[C@@H](C)C(=O)N[C@@H](Cc1c[nH]cn1)C(=O)N[C@@H](CC(=O)O)C(=O)N[C@@H](Cc1ccccc1)C(=O)N[C@H](C(=O)N[C@@H](CCC(=O)O)C(=O)N[C@@H](Cc1c[nH]c2ccccc12)C(=O)N[C@@H](CC(C)C)C(=O)N[C@@H](CC(C)C)C(=O)N[C@@H](CCCNC(=N)N)C(=O)N[C@@H](C)C(N)=O)C(C)C)C(=O)O [Compound 27] (HELM PEPTIDE1{Y.[Aib].Q.G.T.F.T.S.D.Y.S.I.Y.L.D.S.K.A.A.H.D.F.V.E.W.L.L.R.A.[am]}|PEPTIDE2{[CCCCCCCCCCCCCCCC(=O)[*:2]].[gGlu]}$PEPTIDE1,PEPTIDE2,17:R3-2:R2$$$V2.0)	–	–	–	–	–	–	EC50 (human GLP-1 R; Table 2): 0.16 nM; EC50 (human GLP-1 R; [7]): 0.07 nM; EC50 (human GCG R; Table 2, average EC50, cAMP, HEK293 cells expressing human GCG R, read-out: GCG R (EC50 in nM)): 0.07 nM; EC50 (human GIP R; Table 2, average EC50, cAMP, read-out: GIP R (EC50 in nM)): 0.12 nM; EC50 (human GIP R; Table 2b (most comprehensive data), average EC50, cAMP, read-out: GIP R (EC50 in nM)): 0.16 nM
CCCCCCCCCCCCCCCCCC(=O)N[C@@H](CCC(=O)NCCOCCOCC(=O)NCCOCCOCC(=O)NCCCC[C@H](NC(=O)[C@H](CCCCN)NC(=O)[C@H](CCC(=O)O)NC(=O)[C@H](CC(C)C)NC(=O)[C@H](C)NC(=O)[C@@H](NC(=O)[C@H](CO)NC(=O)[C@H](Cc1ccc(O)cc1)NC(=O)[C@H](CC(=O)O)NC(=O)[C@H](CO)NC(=O)[C@@H](NC(=O)[C@H](Cc1ccccc1)NC(=O)[C@@H](NC(=O)CNC(=O)[C@H](CCC(N)=O)NC(=O)C(C)(C)NC(=O)[C@@H](N)Cc1ccc(O)cc1)[C@@H](C)O)[C@@H](C)O)[C@@H](C)CC)C(=O)N[C@@H](C)C(=O)N[C@@H](CCC(N)=O)C(=O)N[C@@H](CCCNC(=N)N)C(=O)N[C@@H](C)C(=O)N[C@@H](Cc1ccccc1)C(=O)N[C@H](C(=O)N[C@@H](CCC(=O)O)C(=O)N[C@@H](Cc1c[nH]c2ccccc12)C(=O)N[C@@H](CC(C)C)C(=O)N[C@@H](CC(C)C)C(=O)N[C@@H](C)C(=O)N[C@@H](CCC(N)=O)C(=O)N[C@@H](CCCCN)C(N)=O)C(C)C)C(=O)O [Compound 46] (H-Y[Aib]QGTFTSDYSIALEKK([AEEA-AEEA-γGlu-Stearoyl])AQRAFVEWLLAQK-NH2)	–	–	–	–	–	–	EC50 (human GLP-1 R; [7]): 0.16 nM; EC50 (human GCG R): 0.13 nM; EC50 (human GIP R; [8]): 0.011 nM
CC[C@H](C)[C@H](NC(=O)[C@H](CO)NC(=O)[C@H](Cc1ccc(O)cc1)NC(=O)[C@H](CC(=O)O)NC(=O)[C@H](CO)NC(=O)[C@@H](NC(=O)[C@H](Cc1ccccc1)NC(=O)[C@@H](NC(=O)CNC(=O)[C@H](CCC(N)=O)NC(=O)C(C)(C)NC(=O)[C@@H](N)Cc1ccc(O)cc1)[C@@H](C)O)[C@@H](C)O)C(=O)N[C@@H](Cc1ccc(O)cc1)C(=O)N[C@@H](CC(C)C)C(=O)N[C@@H](CC(=O)O)C(=O)N[C@@H](CO)C(=O)N[C@@H](CCCCN)C(=O)N[C@@H](C)C(=O)N[C@@H](C)C(=O)N[C@@H](Cc1c[nH]cn1)C(=O)N[C@@H](CC(=O)O)C(=O)N[C@@H](Cc1ccccc1)C(=O)N[C@H](C(=O)N[C@@H](CCC(=O)O)C(=O)N[C@@H](Cc1c[nH]c2ccccc12)C(=O)N[C@@H](CC(C)C)C(=O)N[C@@H](CC(C)C)C(=O)N[C@@H](CO)C(=O)N[C@@H](C)C(N)=O)C(C)C [Compound 5] (HELM PEPTIDE1{Y.[Aib].Q.G.T.F.T.S.D.Y.S.I.Y.L.D.S.K.A.A.H.D.F.V.E.W.L.L.S.A.[am]}$$$$V2.0)	–	–	–	–	–	–	EC50 (human GLP-1 R; Table 2): 0.0092 nM; EC50 (human GCG R): 0.065 nM; EC50 (human GIP R; GIP R (EC50 in nM), Table 2, average EC50, cAMP): 0.17 nM; EC50 (human GIP R; [8]): 0.009 nM
B1	0.022 nM	0.015 nM	0.13 nM	0.022 nM	0.022 nM	0.015 nM	–
H-YSQGTFTSDYSKYLDSKAAHDFVEWLLRA-NH2 [Compound 1]	0.013 nM	0.033 nM	0.38 nM	0.013 nM	0.013 nM	0.033 nM	–
H-Y[Aib]QGTFTSDYSKYLDSK([γGlu-Palmitoyl])AAHDFVEWLLSA-NH2 [Compound 2]	0.046 nM	0.089 nM	0.35 nM	0.046 nM	0.046 nM	0.089 nM	–
B2	0.065 nM	0.0092 nM	0.17 nM	0.065 nM	0.065 nM	0.009 nM	–
H-Y[Aib]QGTFTSDYSIALEKK([Peg3-Peg3-γGlu-Stearoyl])AQRAFVEWLLAQK-NH2 [Compound 46]	–	–	–	0.13 nM	0.16 nM	0.011 nM	–
